In the test the target is CD55 (UniProt P08174). The test is described as follows: cell-based or functional assay.
UniProt P08174, sequence (P08174 35-353 limits assumed): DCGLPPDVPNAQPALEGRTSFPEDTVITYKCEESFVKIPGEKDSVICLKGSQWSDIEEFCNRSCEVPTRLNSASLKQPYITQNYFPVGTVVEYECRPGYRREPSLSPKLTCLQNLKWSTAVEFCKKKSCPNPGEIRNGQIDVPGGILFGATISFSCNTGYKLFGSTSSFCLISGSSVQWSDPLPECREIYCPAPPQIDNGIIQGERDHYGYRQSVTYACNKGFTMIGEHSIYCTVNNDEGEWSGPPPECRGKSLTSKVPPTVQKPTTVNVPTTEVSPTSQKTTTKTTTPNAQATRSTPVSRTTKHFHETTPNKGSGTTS

Substance BRIC 216 (antibody) registered a C3b deposition on 791T cells, mean linear fluorescence (MLF) of 350 MLF.

As to monoclonal antibody 791T/36, the C3b deposition on 791T cells, mean linear fluorescence (MLF) was 520 MLF and the increase in C3b deposition was determined as 250%.

Consider BRIC 220 (antibody), for which the C3b deposition on 791T cells, mean linear fluorescence (MLF) amounted to 200 MLF.

The values above are taken from patent US9580512.
